Measured values reported in patent publication US20030158387A1.

Key:
[1] = target: chemokine receptor 5 (CCR5) (human) (UniProt P51681)
[2] = target: chemokine receptor 1 (CCR1) (UniProt P56482); assay: competition radioligand binding, membranes of CHO-K1 cells expressing CCR1, tracer [125I]-MIP-1 alpha
[3] = target: chemokine receptor 5 (CCR5) (human) (UniProt P51681); remark: listed apart in the source
[4] = target: chemokine receptor 5 (CCR5) (human) (UniProt P51681); assay: competition radioligand binding, membranes of CHO-K1 cells expressing CCR5, tracer [125I]-MIP-1 beta
[5] = target: chemokine receptor 1 (CCR1) (UniProt P56482); assay: competition radioligand binding, membranes of CHO-K1 cells expressing CCR1, tracer [125I]-MIP-1 alpha; mean ± SEM
[6] = target: chemokine receptor 5 (CCR5) (human) (UniProt P51681); assay: competition radioligand binding, membranes of CHO-K1 cells expressing CCR5, tracer [125I]-MIP-1 beta; mean ± SEM
[7] = target: chemokine receptor 1 (CCR1) (UniProt P56482)
[8] = target: chemokine receptor 1 (CCR1) (UniProt P56482); remark: listed apart in the source
[9] = target: chemokine receptor 1 (CCR1) (UniProt P56482); assay: cell-based or functional assay

RANTES, sequence (P13501 24-91): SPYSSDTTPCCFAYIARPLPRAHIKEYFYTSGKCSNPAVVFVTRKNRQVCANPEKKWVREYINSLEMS
chemokine receptor 5 (CCR5) (human), sequence (P51681 whole entry): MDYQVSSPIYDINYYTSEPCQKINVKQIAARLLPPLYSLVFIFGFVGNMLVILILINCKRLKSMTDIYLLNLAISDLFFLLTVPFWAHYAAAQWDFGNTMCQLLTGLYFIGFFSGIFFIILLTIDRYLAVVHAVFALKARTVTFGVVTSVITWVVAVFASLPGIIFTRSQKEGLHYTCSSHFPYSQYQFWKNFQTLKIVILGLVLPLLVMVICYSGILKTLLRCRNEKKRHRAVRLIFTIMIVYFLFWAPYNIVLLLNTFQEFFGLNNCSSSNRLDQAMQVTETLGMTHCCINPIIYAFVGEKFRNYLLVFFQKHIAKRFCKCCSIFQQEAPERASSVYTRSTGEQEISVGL

Substance | EC50 (read off the curve) [1] [nM] | IC50 (read off the curve) [2] [nM] | EC50 (aequorin luminescence, CHO-K1 cells expressing CCR5) [3] [nM] | IC50 (read off the curve) [4] [nM] | IC50 [5] [nM] | IC50 [6] [nM] | EC50 (read off the curve) [7] [nM] | EC50 (aequorin luminescence, CHO-K1 cells expressing CCR1) [8] [nM] | EC50 of receptor activation (aequorin assay) [9] [nM]
AOP-RANTES (ligand) | 3 | 4 | 1.94 | 0.06 | 2.67 | 0.0968 | – | – | –
NNY-RANTES (ligand) | – | 4 | 1.45 | 0.1 | 5.42 | 0.776 | – | – | –
RANTES (from UniProt P13501 24-91) (ligand) | – | 0.3 | – | – | – | – | 10 | 8.03 | 6.3
